Results on six molecules are retold here after US20240026407A1, “MODIFICATION OF SAPONINS” (GLAXOSMITHKLINE BIOLOGICALS SA, priority 2020, published 2024).

Common to all, as to assay type: biochemical, Quillaja saponaria
Experiment [1] is described as follows: Experiment 4-1: screening of glucosidases for deglycosylation with purified QS-18 (0.04 mg/ml) at pH 7.5 and room temperature. The note with it: pH 7.5, room temperature, 20 h, clarified E. coli lysate, QS-18 2150 to QS-21 1988 by LCMS/MS. In a few lines:
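Candidate glucosidases expressed in E. coli BL21(DE3) (pET24b+, autoinduction, 20 °C for 20 h); clarified lysates in 100 mM potassium phosphate pH 7.5 incubated with QS-18 (0.04 mg/ml final) 20 h at room temperature. Quenched with MeCN, analysed by LC-MS/MS for % conversion; hits >3 S.D. above negative control.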

Experiment [2] is described as follows: Experiment 4-2: screening of glucosidases for deglycosylation with purified QS-18 (1 mg/ml) at pH 6 and 30 deg C. The following applies: pH 6, 30 degC, 18 hrs, clarified lysate, LCMS/MS. Put shortly:
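Clarified lysates of glucosidase-expressing cells in 100 mM potassium phosphate pH 6 were incubated 18 h at 30 °C with QS-18 at 1 mg/ml final. Reactions quenched with MeCN; deglycosylation activity determined by LC-MS/MS.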

Experiment [3] in a line: Experiment 4-4: screening of glucosidases for deglycosylation of QS-18 in crude bark extract (1 in 20 dilution) to QS-21. The following applies: CBE 1 in 20 dilution, pH 6, 25 degC, 18 hours; % conversion of Middle Peak by UV HPLC. The procedure: Lysates were prepared as in Experiment 4-2.
Crude bark extract (CBE) was adjusted to pH 6 by dropwise addition of 2M NaOH with stirring. 25 uL of clarified lysate was transferred to a reaction plate, 22.5 ul of 100 mM potassium phosphate buffer pH 6 was added, 2.5 ul CBE at pH 6 was added. Reaction plates were sealed, incubated at 25 degC with shaking for 18 hours, then quenched by addition of 50 uL acetonitrile (MeCN). Quenched reaction plates were re-sealed and incubated at 20 degC with shaking for 10 min. The reaction plates were centrifuged (10 min, 4 degC) and analysed by UV HPLC with the method below:
Three key peaks of interest are apparent using this chromatography: Left Peak (retention time approximately 2.30-2.35 min) comprising mainly QS-17 family components; Middle Peak (retention time approximately 2.37-2.42 min) comprising mainly QS-18 family components and desglucosyl-QS-17 family components; and Right Peak (retention time approximately 2.44-2.50 min) comprising mainly QS-21 family components. Peak identity was supported by MS/MS.
Enzyme activity is calculated as the % conversion of the Middle Peak present in the crude bark extract: […]

B1: 380 (protein, listed as Ogataea parapolymorpha)
chain: MSTFDVDDILSQLHVKEKVQLLSLKDFWHTANIDRLNIPSVRLSDGPNGVRGTKFFRSVPSACFSSGTALAATFNMPLLEQLGKLMAEEARHKGAHVILGPTCNIARGPLGGRGFESFSEDPYLSGIAAAAIIKGIESQGIGATLKHFVCNDLEDERNSIDVILSDRALREIYLLPFQIAIKEANPKCVMSSYNKVMGEHVSQSKKLLTDILRKEWGWDGLTMSDWFGVYSIKSSLDAGLDLECPGYPLMRKHDALIHAISSREINMDVIDIRVRNILKLVQHALKSSIPQNAPEDSENNTPETSALLRKAASEAIVLLKNESSILPLKPSDEIAVIGPNARIPRMYGGGSASVNCYYGISVYDGISNKIGSQPPYSMGCDIARNMFDLGKLASYKGEPGVRIKVYKEAPGTPDRSLIEEFRYDSLQLLLFDYNHEKLDSSLFYFDIEGEFTSDKDMSYDIHLSCLGTALLYINGELFIDDKTNQKMGFAAIGASSLGDTKTIHMKKDERIEFKIEFGSAPTFTLETLDLVASNGGGSLTVAIGEKITDQNRINDAVELAKTADKVILCVGTSSDWESEGFDRPHMDLPKSQGILIEEILKVNKNIILVNLSGTPVTLPWIDEIPAVVHGWFNGMESGNAMADVLYGDVNASGKLSLSWPKRCEDNPSFLNFKSDKGKVVYGEDVFVGYRYYEKVCREPLFAFGYGLSYTAFNFDGLDVKVAADNLVCTLNIKNIGKLRGAEVVQLYVIPPLTTTTVSRPLKEFKGCQKVFLEPGQKITTTISVPIKYACSYFDVERQKWSIESGEYGVFIGNSSDAMDALIGKFVIQKPLLWSGL
As for B1, the “Expt 4-1 % conv” value in experiment [1] is on record as 2.4%. The “Expt 4-2 % conv” value in experiment [2] is 0.5%. For the same molecule, the “Expt 4-4 % conv” value in experiment [3] is on record as <3%.

B2: 222 (protein, listed as Marinomonas posidonica)
chain: MTPKDILNALTVEEKARLCTGKDFWHLHGIERLELPSIMVTDGPHGLRKQSGEGDHVGLNASVKATCFPTASGLASSWNPALIEKMGVALGKECRAENVSVLLGPGINIKRNPLGGRNFEYFSEDPLIAGDMSTAWIKGVQSQDVGTSLKHYAVNNHEHCRMTVDAVVDQRTLREIYLPAFEKAIKQSQPWTVMCAYNKINGTYAAEHQQLLDDILVKEWGFEGIVVTDWGANNDRVEGIKHGQHLEMPSSGELNTQKILDAIDSGRLSIAALDKSVLRVLELIVKSQAALNNAPVNVDLERHHTLASKVAEESCVLLKNDQLLPAQKDQNVLVIGALANNTRYQGAGSSKINPFKLEQPLAQIEAVFGTNNVRYSQGYQLNDESDQTMIEDAVAQAEQADVIFLFAGLTPKYESEGFDRQHLNLPQVQLDLIDALGDQLGKTAVILQNGAPVTLPFVDKVPAILEAYLGGQAGASAIAKILAGDVNPSGKLAETFPLSLDDVPSQPYFPGTTKQTQYREAIWVGYRYFAHTAQPVLFPFGHGLTYSEFSFSELRIMDDKLDLKAVSFDEQTRIRLQVTVTNTGDRAGAEVVQCYLGQNKPSQPRPAKELRAYQKVFLEAGQSKCVELELNYRDFAFWCEADSQWRVESDDYHIQIGASVEDIRLTTLITLKTDTPLAPQNATLSAYFTPADRQFNDQSFSALLGKPIPDATPITPYTLNSTLGDIAQTEQGKPLFNAMLSVFSKMMEGDTNDSAAEADKLMAEAMVSDMPLRNLPVFNSQSYSEEALLALLADLNS
For B2, the “Expt 4-1 % conv” value in experiment [1] was 1.6%. In experiment [2], the “Expt 4-2 % conv” value is recorded as 0.4%. Moreover, the “Expt 4-4 % conv” value in experiment [3] is given as <3%.

B3: 350 (protein)
chain: MIDDILDKMTLEEQVSLLSGADFWTTVAIERLGVPKIKVTDGPNGARGGGSLVGGVKSACFPVAIALGATWDPELIERAGVALGGQAKSKGASVLLAPTVNIHRSGLNGRNFECYSEDPALTAACAVAYINGVQSQGVAATIKHFVANESEIERQTMSSDVDERTLREIYLPPFEEAVKKAGVKAVMSSYNKLNGTYTSENPWLLTKVLREEWGFDGVVMSDWFGSHSTAETINAGLDLEMPGPWRDRGEKLVAAVREGKVKAETVRASARRILLLLERVGAFEKAPDLAEHALDLPEDRALIRQLGAEGAVLLKNDGVLPLAKSSFDQIAVIGPNAASARVMGGGSARIAAHYTVSPLEGIRAALSNANSLRHAVGCNNNRLIDVFSGEMTVEYFKGRGFESRPVHVETVEKGEFFWFDLPSGDLDLADFSARMTATFVPQETGEHIFGMTNAGLARLFVDGELVVDGYDGWTKGENFFGTANSEQRRAVTLGAARRYRVVVEYEAPKASLDGINICALRFGVEKPLGDAGIAEAVETARKSDIVLLLVGREGEWDTEGLDLPDMRLPGRQEELIEAVAETNPNVVVVLQTGGPIEMPWLGKVRAVLQMWYPGQELGNALADVLFGDVEPAGRLPQTFPKALTDNSAITDDPSIYPGQDGHVRYAEGIFVGYRHHDTREIEPLFPFGFGLGYTRFTWGAPQLSGTEMGADGLTVTVDVTNIGDRAGSDVVQLYVHSPNARVERPFKELRAFAKLKLAPGATGTAVLKIAPRDLAYFDVEAGRFRADAGKYELIVAASAIDIRASVSIHLPVDHVMEP
modifications: Rhizobium radiobacter
Turning to B3, the “Expt 4-1 % conv” value in experiment [1] is 2.6%. The “Expt 4-2 % conv” value in experiment [2] turned out to be 0.7%. Also, the “Expt 4-4 % conv” value in experiment [3] is reported as <3%.

B4: 339 (protein, listed as Koribacter versatilis)
chain: MKISRVFLATTLALSMFGSAQRPDPRAELMKKPWMDKNKSADERAELVLKEMTVDEKINLIHGQGMEEMAEFGIPMPNKALGNGGAGFVLGVERLGIPLIQMSDAAYGVRSSAKNGRYSTALPSNLGSAASWDPQAACEYGALIGRELRAQGYNMTLGGGVNITREPRNGRTFEYMGEDPILAGTLVGNRIKCEQAQHVIGDTKHYAVNDQESGRTEVDVVISKRAMRETDLLAFEIGIEIGQPGAVMCSYNLVNGTYACQNKYLLTDVLKKDWNFKGFVVSDWGATHSTIESSAAGLDNEQPFGIFYSDKFKAGLDSGKIPMSELDDHVRRILRTEFASGIVDNPVVKAVVDVEAGLETARKIEEGSIVLLKNGNNILPLDKDSIKSVAIIGEKADFGMISGGGSAQVDPPGPSHEWQAHVWFPTSPLKAVQAKLPNAKVDWRSGSDKSKAAALAKQSDIAIVFVHQWISEGMDLPDLTLPFGQDELIERVAAANPRTIVVLESGTAVTMPWLDKVSGVVEAWYGGSKGADAVANILFGDVNPSGKLPMTFPRSVEDVPHPKLAVPPPNPNPMETYMHPELAKATVTATYDEGVKVGYKWYDAEKKPVLFPFGFGLSYTTYQYSGLKVSSGKTTTVSFTVKNTGKRGGDEIAQVYASLPAEAQEPPKRLVGFTKVHLNAGESKEVSVTVPAKYLSVFDEASNGWKLVPGSYSFMVGGSSQDLPQKQSATF
As to B4, the “Expt 4-1 % conv” value in experiment [1] is listed as 1.4%. Moreover, in experiment [2], the “Expt 4-2 % conv” value was found to be 0.5%. Besides, the “Expt 4-4 % conv” value in experiment [3] is on record as <3%.

B5: 354 (protein, listed as Chthonomonas calidirosea)
chain: MGKTKRSLKVNRRDFFTLGAATLLAAISLPDGDLLAFAQKEREKDLVYGIRRERFEWAQKKAAALVAQMTREEKISQVGNNVPAIPRLGLPAYNYYSGEALHGLVRGGPVTSFPLPLALANTWNPELQYQVYTAVSDEARAYHNRDGVGLAYYSPQTINTAKDPRWGRIEETLGEDPHLMSLMAVQAVRGMQGDDPNYLKTVACAKHYIANETDNDRTAVSETVDPRSFWEYYVRPFYACVVDGKVFSVMGAYNAVNGIPCCADKNLLTGILRERWGFQGYVTSDCDAIYNIYDPHHYATSLAEACAMGIKAGCDLDCGDTYPRHLGEAFEQHLLEEADLDKAVTRLLTARFLFGDLDPEPRCPYNKIPFSVVDSPKHRALALEAARQSIVLLKNDGILPLDKTALKSVAVIGPTAAIAHLGGYSGAPFLRVSPLSGIAQALGIGIHFDEVYAYQAVRLEGGPQLESSVEQGGTDIGFIKNGSWVEFPATDFAGKNEIEVRVASDTQGGTIEIHLDRLNGPLLCTLQVPHTGGWQNWISLKAPINGVIGKHKLFFLFKGGDGYLLNVAWYRLNPPSPPETHNPNGIALTYQQGCTITGARNDTMFQKAVEAARQADVAIVVAGVNQEVDAEGHDRDDIRLTGAQHELIQAVYQANPKTILVLSTNAPVAVTWEQENLPAIVAAIFAGQAQGTAIADVLFGNYNPSGKLATTWYKSVEDLPDFHDFDITKRTYMYFEGEPLYPFGYGLSYTTFQIGNIQVSHPRLTSGGSITVSVDVTNIGKRAGTEVVQLYVRPPKSPVKRPNKQLVDFKRVELRPGETKRVELSLPYESPALWYWDVAQSKFVLQPGTVTLMVGNSSAHIAHTTTIELV
Consider B5, for which, in experiment [1], the “Expt 4-1 % conv” value is listed as 1.6%. In addition, the “Expt 4-2 % conv” value in experiment [2] stood at 0.5%. Moreover, the “Expt 4-4 % conv” value in experiment [3] was <3%.

B6: 234 (protein, listed as Sphingobium chlorophenolicum)
chain: MTFPRSLFLASTILAFHCNPSFARNESPAKAIERADKTLKAMTPEEKTILTHGIMPLKILPNSPEPPAEAIPGAGYIKGIPRLGVPALYETDASLGVSYVFGLRKDGATALPSGLAQASTWNPALIEKAGRMIGAETRAKGFNVLLAGGVNLMRDPRNGRNFEYLGEDPLLAGTLVGHAIRGIQSNHIISTIKHFAFNGQETARKLVDSKISAANAHESDLLAFKIGIEIGDPGSVMCAYNKVNGHSACDNNWLLNTVLKHDWGYKGFVMSDWGAVPSLGAALNGLDQQSGEQLDTAVFFGDTLAAAAKSNPVYAKRLDDMNRRILWAIYNNGLDANPAKPGGVIDFKAHGDIAEQVARQGIVLLRNERGVLPLAASTKRIAVIGGYANSGVLSGAGSSQVQAEGGPAVYIPAGNGDENSSFIAESYHNSVPLKALRAAAPNAEITYRNGRYIAEAVAQAKKSDVAIVFATQWTSEGFDVPDMSLPNGQDALLAAVAAANPNTVVVLETGGPVMMPWLDSTAAVIEAWYPGARGAEAIAAVLTGKVNPSGKLPVTFPAHKDQLPRAEVDGMDSTEPSFLGMPDLKGQALVADYDIEGSNIGYRWNALKGNKALFPFGHGLSYTSFAASGLKTDGARASARITNTGKADGATIAQLYLVSRTGKPARRLVSFQRVELVAGQSKPLAMTIDPRLLGDWRDGNWTIVAGDYGFALGEDAEHLGPVTTVRLKGRTWRD
Turning to B6, the “Expt 4-1 % conv” value in experiment [1] is listed as 2.5%. For the same molecule, in experiment [2], the “Expt 4-2 % conv” value came out at 0.7%. For the same molecule, the “Expt 4-4 % conv” value in experiment [3] is on record as <3%.
